# Source: US20180066035A1 (published 2018)
# Where a chain is given by its changes, count along the chain named. In names and notes the source's numbering stands.
# B1: R6.5 (mouse anti-human ICAM-1 monoclonal antibody from hybridoma; scFv derived from it) (antibody, V domains shown)
# VH: QVQLQQSGPELVRPGVSVKISCKGSGYTFIDYAIHWVKESHAKSLEWIGVISAYSGDTNYNQKFKGKATMTVDKSSNTAYLELARLTSEDSAIYYCARGGWLLLSFDYWGQGTTLTVSS
# VL: DVVMTQSPLSLPVSLGDQASISCRSSQSLVHSNGNNYLHWYLQKSGQAPKLLIYKVSNRFSGVPDRFSGSGSGTDFTLKISRVEAEDLGVYFCSQSTHVPLTFGGGTKLEIK
# B2: Wild-type (WT) LFA-1 I domain (receptor)
# chain: GNVDLVFLFDGSMSLQPDEFQKILDFMKDVMKKLSNTSYQFAAVQFSTSYKTEFDFSDYVKWKDPDALLKHVKHMLLLTNTFGAINYVATEVFREELGARPDATKVLIIITDGEATDSGNIDAAKDIIRYIIGIGKHFQTKESQETLHKFASKPASEFVKILDTFEKLKDLFTELQKKIYVIEG
# notes: I domain of the αL subunit of human LFA-1; also called WT I domain; wild-type human I domain
# B3: F292S LFA-1 I domain (receptor)
# chain: B2 chain with F165S
# B4: I309T LFA-1 I domain (receptor)
# chain: B2 chain with I182T
# B5: I288N LFA-1 I domain (receptor)
# chain: B2 chain with I161N
# B6: F265S LFA-1 I domain (receptor)
# chain: B2 chain with F138S
# B7: F292A LFA-1 I domain (receptor)
# chain: B2 chain with F165A
# B8: L289G LFA-1 I domain (receptor)
# chain: B2 chain with L162G
# B9: F265S/F292G (DM) LFA-1 I domain (receptor)
# chain: B2 chain with F138S, F165G
# B10: F292G LFA-1 I domain (receptor)
# chain: B2 chain with F165G
# B11: L295A LFA-1 I domain (receptor)
# chain: B2 chain with L168A
# B12: TM (F265S/F292G/G311C) I domain CAR (receptor, part only; not given: Tag, hinge, transmembrane and signaling domains, not shown: another chain or arm of the molecule; a dimerising Fc or GST; small tags and cut ends)
# chain: ECIKGNVDLVFLFDGSMSLQPDEFQKILDFMKDVMKKLSNTSYQFAAVQFSTSYKTEFDFSDYVKWKDPDALLKHVKHMLLLTNTFGAINYVATEVFREELGARPDATKVLIIITDGEATDSGNIDAAKDIIRYIIGIGKHSQTKESQETLHKFASKPASEFVKILDTGEKLKDLFTELQKKIYVIECTS
# modifications: Disulfide bond between Cys-125 (chain position 2) and the introduced Cys-311 (chain position 188), per paragraph 45.
# B13: F265S/F292G/G311C (TM) LFA-1 I domain (receptor)
# chain: B12 chain
# modifications: disulfide bond between Cys-311 (G311C) and naturally unpaired Cys-125
# notes: also called triple mutant
# What was measured:
# [1] = biological target: T1, human ICAM-1 on cells (HeLa, 8505C, 8505C/LPS, HMEC-1, T cells) (human, UniProt P05362 28-532); assay: estimated from titrated R6.5 antibody binding to HeLa cells
# T1 construct: whole, on cells
# T1 sequence (P05362 28-532): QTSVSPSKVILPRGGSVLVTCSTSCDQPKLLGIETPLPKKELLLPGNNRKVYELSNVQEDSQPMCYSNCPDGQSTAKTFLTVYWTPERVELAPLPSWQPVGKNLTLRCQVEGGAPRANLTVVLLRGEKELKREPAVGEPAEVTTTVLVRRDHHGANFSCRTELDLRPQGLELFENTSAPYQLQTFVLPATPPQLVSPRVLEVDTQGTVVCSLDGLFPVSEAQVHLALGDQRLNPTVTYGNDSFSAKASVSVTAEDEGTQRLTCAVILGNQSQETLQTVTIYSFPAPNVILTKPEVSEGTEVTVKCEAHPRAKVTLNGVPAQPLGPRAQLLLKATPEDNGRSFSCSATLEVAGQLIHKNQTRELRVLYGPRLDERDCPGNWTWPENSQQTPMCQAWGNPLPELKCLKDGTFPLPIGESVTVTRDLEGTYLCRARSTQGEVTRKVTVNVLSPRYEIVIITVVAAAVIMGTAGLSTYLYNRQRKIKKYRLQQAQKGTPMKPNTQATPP
# [2] = biological target: T2, human ICAM-1 (immobilized, SPR) (human, UniProt P05362 28-480, limits assumed); assay: SPR, I domain over immobilized human ICAM-1
# T2 construct: Form immobilized on the SPR chip is not described; also called Intercellular adhesion molecule-1; CD54
# T2 sequence (P05362 28-480 limits assumed): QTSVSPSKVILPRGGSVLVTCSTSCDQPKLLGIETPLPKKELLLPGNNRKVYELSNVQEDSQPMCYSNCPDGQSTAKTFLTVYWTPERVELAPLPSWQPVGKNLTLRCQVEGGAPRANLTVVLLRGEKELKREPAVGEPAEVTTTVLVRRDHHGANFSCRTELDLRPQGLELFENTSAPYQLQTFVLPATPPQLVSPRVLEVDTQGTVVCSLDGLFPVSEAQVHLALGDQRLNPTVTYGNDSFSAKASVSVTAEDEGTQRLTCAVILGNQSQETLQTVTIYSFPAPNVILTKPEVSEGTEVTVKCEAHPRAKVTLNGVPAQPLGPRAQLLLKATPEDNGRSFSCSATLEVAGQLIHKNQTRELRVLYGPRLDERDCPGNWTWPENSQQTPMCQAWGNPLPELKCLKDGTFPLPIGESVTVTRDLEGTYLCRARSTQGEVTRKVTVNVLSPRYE
# [3] = biological target: T3, recombinant human ICAM-1 fused to human Fcγ (R&D Systems) (human, UniProt P05362 28-480); assay: estimated from flow cytometry MFI of ICAM-1-Fc binding to yeast cells expressing the I domain variant
# T3 construct: Bought reagent; also called ICAM-1-Fc; human ICAM-1-Fcγ; not shown: human Fcγ
# T3 sequence (P05362 28-480 limits assumed): as above
# [4] = biological target: human ICAM-1 on cells (HeLa, 8505C, 8505C/LPS, HMEC-1, T cells) (human) (UniProt P05362); assay: cell-based or functional assay
# human ICAM-1 on cells (HeLa, 8505C, 8505C/LPS, HMEC-1, T cells) (human), sequence (P05362 28-532): as the sequence (P05362 28-532) above
# [5] = biological target: T2, human ICAM-1 (immobilized, SPR); assay: comparison of the Table 1 affinities
# [6] = biological target: T2, human ICAM-1 (immobilized, SPR); assay: SPR
# murine ICAM-1 (SPR) = murine ICAM-1 (SPR) (murine, UniProt P13597 28-485, limits assumed); assay: SPR, F265S/F292G flowed over murine ICAM-1 (FIG. 1C)
# murine ICAM-1 (SPR), sequence (P13597 28-485 limits assumed): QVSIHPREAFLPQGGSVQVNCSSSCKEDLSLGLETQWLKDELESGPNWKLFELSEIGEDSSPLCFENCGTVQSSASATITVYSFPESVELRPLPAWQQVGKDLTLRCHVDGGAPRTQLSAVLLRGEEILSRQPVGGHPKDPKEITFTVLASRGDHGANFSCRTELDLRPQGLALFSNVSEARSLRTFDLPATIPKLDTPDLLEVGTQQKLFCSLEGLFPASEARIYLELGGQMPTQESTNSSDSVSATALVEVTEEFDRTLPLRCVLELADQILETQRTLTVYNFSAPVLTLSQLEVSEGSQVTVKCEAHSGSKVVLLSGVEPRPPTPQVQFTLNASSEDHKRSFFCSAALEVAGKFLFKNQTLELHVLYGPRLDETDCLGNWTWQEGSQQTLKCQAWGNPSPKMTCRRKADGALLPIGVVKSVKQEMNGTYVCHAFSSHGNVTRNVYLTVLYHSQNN
# [7] = biological target: murine ICAM-1 on bEnd.3 cells (mouse) (UniProt P13597); assay: cell-based or functional assay
# murine ICAM-1 on bEnd.3 cells (mouse), sequence (P13597 28-537): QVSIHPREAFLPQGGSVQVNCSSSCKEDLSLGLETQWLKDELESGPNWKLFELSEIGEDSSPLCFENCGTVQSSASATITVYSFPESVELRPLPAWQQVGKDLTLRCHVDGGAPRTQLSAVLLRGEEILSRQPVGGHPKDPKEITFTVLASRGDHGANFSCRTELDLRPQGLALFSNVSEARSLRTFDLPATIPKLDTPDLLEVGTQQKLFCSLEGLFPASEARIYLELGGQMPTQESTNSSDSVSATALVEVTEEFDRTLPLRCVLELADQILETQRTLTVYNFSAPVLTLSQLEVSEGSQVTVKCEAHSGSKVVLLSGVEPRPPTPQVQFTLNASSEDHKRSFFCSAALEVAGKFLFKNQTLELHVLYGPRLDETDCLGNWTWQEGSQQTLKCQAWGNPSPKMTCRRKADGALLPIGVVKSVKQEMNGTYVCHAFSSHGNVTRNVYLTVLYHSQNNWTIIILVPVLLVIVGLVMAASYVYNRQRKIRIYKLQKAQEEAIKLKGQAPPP
binder,measurement,setting,value
B1,Kd,[1],0.01 µM
B2,Kd,[2],1500 µM
B3,Kd,[3],1.24 µM
B4,Kd,[3],127 µM
B5,Kd,[3],202 µM
B6,Kd,[2],0.145 µM
B7,"time (hours) to 50% killing, 8505C target cells",[4],41.5 h
same,"time (hours) to 50% killing, 8505C/LPS target cells",[4],30.8 h
same,"time (hours) to 50% killing, HeLa target cells",[4],18.7 h
same,fold lower affinity than the scFv-based R6.5 CAR,[5],> 1000 fold
same,Kd,[2],20 µM
B8,Kd,[3],0.196 µM
B9,fold higher affinity than the wild-type (WT) I domain,[6],~200000 fold
same,Kd,[2],0.006 µM
same,Kd,murine ICAM-1 (SPR),0.002 µM
B10,"time (hours) to 50% killing, 8505C target cells",[4],27.3 h
same,"time (hours) to 50% killing, 8505C/LPS target cells",[4],24 h
same,"time (hours) to 50% killing, HMEC target cells",[4],21.1 h
same,"time (hours) to 50% killing, HeLa target cells",[4],14.9 h
same,"time (hours) to 50% killing, bEND3 target cells",[7],16.2 h
same,Kd,[2],0.119 µM
B11,Kd,[3],37 µM
B12,"time (hours) to 50% killing, 8505C target cells",[4],17.1 h
same,"time (hours) to 50% killing, 8505C/-ICAM-1 target cells",[4],32.6 h
same,"time (hours) to 50% killing, 8505C/LPS target cells",[4],15.1 h
same,"time (hours) to 50% killing, HMEC target cells",[4],13.4 h
same,"time (hours) to 50% killing, HeLa target cells",[4],10.8 h
same,"time (hours) to 50% killing, bEND3 target cells",[7],13 h
B13,Kd,[2],~0.001 µM
